Test results taken from patent US20090227489A1, “STAT3 Agonists and Antagonists and Therapeutic Uses Thereof” (Johns Hopkins University, priority 2000, published 2009).

Experiments:
B16 cells [1] = assay: RNase protection assays of cytokine and chemokine RNA in B16 cells; assay type: cell-based, murine; conditions: 36 h after transfection
Protocol: FIG. 7A-B. Stat3β expression in B16 cells upregulates the expression of pro-inflammatory chemokines and cytokines, which can stimulate peritoneal macrophages to produce NO. Elevated expression of pro-inflammatory cytokines and chemokines in B16 cells as a result of Stat3β expression (A. TNF-α, IL-6, IFN-β; B. IP-10). Total RNAs were prepared form mock-transfected, GFP-transfected, Stat3β-transfected and UV-irradiated B16 cells. Data shown have been confirmed with at least one more experiment, in which RNAs were prepared from independent transfectants and UV-irradiated B16 tumor cells.
RNase protection assays. 10 μg of total RNA isolated from either pIRES-EGFP- or pIRES-Stat3 β-transfected B16 cells (36 h after transfection) was hybridized to multi-template probes from PharMingen (mCK-5, Top Panel; mCK-3, Lower Panel) that were labeled with ^32P-dUTP using in vitro transcription. The RNA encoded by GAPDH housekeeping gene was used to normalize the amounts of RNAs loaded in each lane. Similar protocols were used to determine RNA expression profiles of macrophages treated with supernatants derived from B16 cells transfected with either Stat3β or GFP vector. […]
RNA expression profiles of a number of cytokines and chemokines in pIRES-Stat3β transfected B16 cells were determined. […]

VEGF [2] = assay: Expression of the endogeneous VEGF gene in B16 tumor cells (Western blot); assay type: cell-based, murine; conditions: ASO at 100 nM, 200 nM, or 300 nM
Protocol: FIG. 13. Inhibition of Stat3 signaling in tumor cells reduces the expression of the endogeneous VEGF gene. B16 tumor cells were transfected with either: A. Stat3β; or B. Stat3 anti-sense oligonucleotides (ASO) at 100 nM, 200 nM, or 300 nM.
A plasmid construct containing the luciferase cDNA in the absence of the VEGF promoter was also transfected into 3T3 fibroblasts. Both of B16 and SCK tumor cells harbor constitutively activated Stat3. In the absence of Stat3β, VEGF promoter activity was readily detectable in both tumor cells as indicated by the high expression levels of luciferase protein. […] The inhibitory effect of Stat3β on the transcriptional activity of the VEGF promoter was also observed in the tumor cells transfected with Stat3 anti-sense oligonucleotides (FIG. 12A-B). It was also shown that blocking Stat3 signaling in tumor cells inhibits the expression of the endogeneous VEGF gene. B16 tumor cells were transiently transfected with Stat3β and the expression of endogeneous VEGF gene was determined at the RNA and protein levels.

VEGF [3] = assay: VEGF expression and Stat3 activity in v-Src-transformed NIH3T3 fibroblasts; assay type: cell-based
Excerpt: FIG. 10A-B. Transfection of NIH3T3-Src cells with either: A. Stat3β expression vector; or B. Stat3 anti-sense oligos, results in reduced levels of VEGF protein as shown by Western blot. Src tyrosine kinase-mediated VEGF upregulation requires Stat3. Src tyrosine activity is known to upregulate VEGF expression. In Src-transformed NIH3T3 cells, VEGF expression is high.
Src tyrosine kinase activity upregulates VEGF expression. […] NIH3T3 fibroblasts transformed by v-Src were transiently transfected with a dominant-negative variant of Stat3, Stat3β. The transfection efficiency was approximately 40% based on the number of cells that were fluorescent due to the presence of GFP. […] Forty-eight hours later, VEGF expression in v-Src-NIH3T3 fibroblasts with or without Stat3β expression was compared at both RNA and protein levels. […] Anti-sense oligonucleotides against Stat3 as well as control oligonucleotides were also transfected into v-Src-NIH3T3 cells.

B16 cells [4] = assay: Apoptosis assay, Annexin V-PE staining and FACS; assay type: cell-based, murine; conditions: 48 hours post transfection; empty vector 25%
Protocol: Apoptosis assay. B16 cells transfected with pIRES-EGFP or pIRES-Stat3β were washed with CellScrub™ buffer (Gene Therapy Systems, San Diego, Calif.) 24 h after transfection. Apoptosis of transiently-transfected B16 cells was analyzed after staining with Annexin V-PE by two-color flow cytometry. Apoptosis of non-transfected tumor cells in the upper chambers of Transwell units was analyzed after staining with Annexin V-PE and VIA-PROBE™ 7-AAD (Pharmingen, San Diego, Calif.) by two-color flow cytometry.
This G0/G1 phase arrest was observed as early as 24 hourspost transfection. At 48 hours post transfection with Stat3β vector, Annexin V-PE staining followed by FACS analysis to detect apoptotic activity was performed with transfected B16 cells. A high level of apoptosis in Stat3β transfected cells (75%) relative to empty vector transfected cells (25%) was observed, as shown in FIG. 2C. Increased levels of apoptosis as a result of Stat3β transfection was confirmed by confocal laser scanning microscope analysis using rhodamine-labelled TUNEL assay.

B16 tumors = assay: Stat3β gene therapy of established B16 tumors in mice; assay type: in vivo; conditions: for tumor growth: ten to fifteen percent of tumor cells transfected in vivo
Protocol: Mice. Six- to eight-week old female C57/B6 mice were obtained from the National Cancer Institute (Frederick, Md.). Cohorts of 3-5 mice per group were used for these experiments. To induce tumor, mice were shaved on the left flank and injected s.c. with 5×10^5 of B16 cells in 100 μl of PBS. Gene therapy with Stat3β of established B16 tumors was described previously [Niu, 1999 #72].
Antibody staining of iNOS in B16 tumors. 3 μm paraffin sections were deparaffinized and endogenous peroxidase was blocked with 3% aqueous hydrogen peroxide. To minimize non-specific binding, the sections were incubated for 20 min in normal goat serum in PBS, followed by overnight incubation at 4° C. with rabbit anti-iNOS polyclonal antibody (Transduction Laboratories). After washing with PBS, sections were incubated for 2 min with diaminobenzidine tetrahydrochloride, rinsed with tap water and counterstained with modified Mayer's hematoxylin. Sections were dehydrated, cleared and mounted. Peritoneal macrophages and neutrophils.
Tissue sections from control vector-treated and Stat3β-treated tumors were stained with H&E and anti-iNOS antibodies.

Stat3 DNA binding activity (EMSA) (VEGF [3]; v-Src NIH3T3): loss of Stat3 DNA binding activity
B1: Stat3β: dominant-negative Stat3 variant, truncated form lacking the transactivation domain; delivered by the pIRES-Stat3β expression vector (protein)
chain: AQWNQLQQLDTRYLEQLHQLYSDSFPMELRQFLAPWIESQDWAYAASKESHATLVFHNLLGEIDQQYSRFLQESNVLYQHNLRRIKQFLQSRYLEKPMEIARIVARCLWEESRLLQTAATAAQQGGQANHPTAAVVTEKQQMLEQHLQDVRKRVQDLEQKMKVVENLQDDFDFNYKTLKSQGDMQDLNGNNQSVTRQKMQQLEQMLTALDQMRRSIVSELAGLLSAMEYVQKTLTDEELADWKRRQQIACIGGPPNICLDRLENWITSLAESQLQTRQQIKKLEELQQKVSYKGDPIVQHRPMLEERIVELFRNLMKSAFVVERQPCMPMHPDRPLVIKTGVQFTTKVRLLVKFPELNYQLKIKVCIDKDSGDVAALRGSRKFNILGTNTKVMNMEESNNGSLSAEFKHLTLREQRCGNGGRANCDASLIVTEELHLITFETEVYHQGLKIDLETHSLPVVVISNICQMPNAWASILWYNMLTNNPKNVNFFTKPPIGTWDQVAEVLSWQFSSTTKRGLSIEQLTTLAEKLLGPGVNYSGCQITWAKFCKENMAGKGFSFWVWLDNIIDLVKKYILALWNEGYIMGFISKERERAILSTKPPGTFLLRFSESSKEGGVTFTWVEKDISGKTQIQSVEPYTKQQLNNMSFAEIIMGYKIMDATNILVSPLVYLYPDIPKEEAFGKYCRPESQEHPEADPGAAPYLKTKFICVTFIDAVWK
expression levels of IL-4 and IL-10 mRNAs (B16 cells [1]): but not IL-4 and IL-10, were elevated
expression levels of IFN-β, TNF-α, IL-6 and IP-10 mRNAs (B16 cells [1]; vs mock, control vector and UV-irradiated B16 cells): elevated
expression of the endogeneous VEGF gene (VEGF [2]): downregulates expression of the endogeneous VEGF gene
VEGF expression (VEGF [3]; v-Src NIH3T3, forty-eight hours): inhibits VEGF
level of apoptosis (B16 cells [4]): 75%
apoptosis of tumor cells in vivo (B16 tumors; B16 tumors): massive apoptosis of B16 tumor cells
tumor growth (B16 tumors; B16 tumors): complete regression of tumors
tumor growth (B16 tumors; B16 tumors, listed as Stat30): inhibition of tumor growth and tumor regression
infiltration of inflammatory cells (neutrophils, macrophages, T cells) (B16 tumors; H&E staining, vs control vector-treated tumors): dramatic increase in number of inflammatory cells
iNOS expression in tumor-infiltrating macrophages (B16 tumors; anti-iNOS antibody staining): induction of iNOS gene expression in the tumor-infiltrating macrophages
